From patent US20260216326A1 (PROMETHEUS BIOSCIENCES, published 2026)
Positions count from the first letter of the chain named. One block for each binder: values may come before it.

Target: T1, human TL1A (Fitzgerald #30R-AT070) (human, UniProt O95150 72-251, limits assumed)
T1 construct: Coated on the ELISA plate at 1 ug/mL; also called TNFSF15
T1 sequence (looked up): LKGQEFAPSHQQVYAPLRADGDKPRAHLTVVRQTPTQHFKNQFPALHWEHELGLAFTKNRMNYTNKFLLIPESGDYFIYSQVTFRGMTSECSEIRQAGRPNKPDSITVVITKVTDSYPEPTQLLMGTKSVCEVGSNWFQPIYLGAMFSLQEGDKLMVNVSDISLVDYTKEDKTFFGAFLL
Assay: ELISA titration, coated human TL1A, culture supernatant

B1: A74 (antibody, human IgG1, V domains shown)
VH: QVQLVQSGAEVKKPGASVKVSCKASGFDIQDTYMHWVRQAPGQGLEWMGRIEPASGHIKYDPKFQGRVTITTDTSTSTVYMELSSLRSEDTAVYYCARSGGLPDWWGQGTTVTVSS
VL: EIVLTQSPGTLSLSPGERATLSCRASSSVSYMYWYQQKPGQAPRPWIYATSNLASGIPDRFSGSGSGTDFTLTISRLEPEDFAVYYCQQWEGNPRTFGGGTKLEIK
notes: human IgG1/kappa (pFuse vectors), culture supernatant
Kd: 0.141 nM

B3: A111 (antibody, human IgG1, V domains shown)
VH: B1 VH with A40R, I70M, T72R
VL: B1 VL
notes: as for B1
Kd: 0.068 nM

B4: A89 (antibody, human IgG1, V domains shown)
VH: B1 VH with I70M, T72R
VL: B1 VL with L13A, P45L, W46L
notes: as for B1
Kd: 0.117 nM

B5: A101 (antibody, human IgG1, V domains shown)
VH: B1 VH with R38K, A40R, E52D, I58T, G66V, V68A, V79A, M81L, W105V
VL: B1 VL with P45L, W46L, E91K
notes: as for B1
Kd: 0.096 nM

B7: A91 (antibody, human IgG1, V domains shown)
VH: B1 VH with I70M, T72R, V79A
VL: B1 VL with P45L, W46L
notes: as for B1
Kd: 0.132 nM

B9: A85 (antibody, human IgG1, V domains shown)
VH: B1 VH with I70M, T72R
VL: B1 VL with P45L, W46L, I57V
notes: as for B1
Kd: 0.13 nM

B11: A116 (antibody, human IgG1, V domains shown)
VH: B1 VH with G66V, T72R
VL: B1 VL
notes: as for B1
Kd: 0.053 nM

B13: A102 (antibody, human IgG1, V domains shown)
VH: B1 VH with R38K, A40R, M48I, E52D, I58T, G66V, V79A, M81L, W105V
VL: B1 VL with P45L, W46L, E91K
notes: as for B1
Kd: 0.104 nM

B15: A109 (antibody, human IgG1, V domains shown)
VH: B1 VH with I70M, T72R, V79A
VL: B1 VL
notes: as for B1
Kd: 0.05 nM

B17: A98 (antibody, human IgG1, V domains shown)
VH: B1 VH with G66V, V68A, I70M, T72R
VL: B1 VL with P45L, W46L
notes: as for B1
Kd: 0.14 nM

B18: A92 (antibody, human IgG1, V domains shown)
VH: B1 VH with I70M, T72R, M81L
VL: B1 VL with P45L, W46L
notes: as for B1
Kd: 0.121 nM

B19: A105 (antibody, human IgG1, V domains shown)
VH: B1 VH with R38K, A40R, M48I, E52D, I58T, G66V, V68A, W105V
VL: B1 VL with P45L, W46L, E91K
notes: as for B1
Kd: 0.11 nM

B20: A97 (antibody, human IgG1, V domains shown)
VH: B1 VH with G66V, I70M, T72R
VL: B1 VL with P45L, W46L
notes: as for B1
Kd: 0.071 nM

B21: A104 (antibody, human IgG1, V domains shown)
VH: B1 VH with M48I, E52D, I58T, G66V, V68A, V79A, M81L, W105V
VL: B1 VL with P45L, W46L, E91K
notes: as for B1
Kd: 0.108 nM

B23: A87 (antibody, human IgG1, V domains shown)
VH: B1 VH with I70M, T72R
VL: B1 VL with P45L, W46L, L77V
notes: as for B1
Kd: 0.121 nM

B24: A95 (antibody, human IgG1, V domains shown)
VH: B1 VH with V68A
VL: B1 VL
notes: as for B1
Kd: 0.105 nM

B25: A75 (antibody, human IgG1, V domains shown)
VH: B1 VH with V68A
VL: B1 VL
notes: as for B1
Kd: 0.259 nM

B28: A93 (antibody, human IgG1, V domains shown)
VH: B1 VH with I70M, T72R, V79A, M81L
VL: B1 VL with P45L, W46L
notes: as for B1
Kd: 0.117 nM

B30: A114 (antibody, human IgG1, V domains shown)
VH: B1 VH with G66V, I70M, T72R
VL: B1 VL
notes: as for B1
Kd: 0.051 nM

B34: A90 (antibody, human IgG1, V domains shown)
VH: B1 VH with I70M, T72R
VL: B1 VL with L11M, P45L, W46L
notes: as for B1
Kd: 0.107 nM

Other lines, results leading:

Kd: 0.102 nM
B2: A99 (antibody, human IgG1, V domains shown)
VH: B1 VH with G66V, T72R
VL: B1 VL with P45L, W46L
notes: as for B1

Kd: 0.081 nM
B6: A88 (antibody, human IgG1, V domains shown)
VH: B1 VH with I70M, T72R
VL: B1 VL with P45L, W46L, F70Y, L77V
notes: as for B1

Kd: 0.107 nM
B8: A103 (antibody, human IgG1, V domains shown)
VH: B1 VH with R38K, A40R, M48I, E52D, I58T, G66V, T72R, V79A, M81L, W105V
VL: B1 VL with P45L, W46L, E91K
notes: as for B1

Kd: 0.129 nM
B10: A86 (antibody, human IgG1, V domains shown)
VH: B1 VH with I70M, T72R
VL: B1 VL with P45L, W46L, F70Y
notes: as for B1

Kd: 0.081 nM
B12: A94 (antibody, human IgG1, V domains shown)
VH: B1 VH with G66V, V68A, T72R
VL: B1 VL with P45L, W46L
notes: as for B1

Kd: 0.055 nM
B14: A108 (antibody, human IgG1, V domains shown)
VH: B1 VH with Q1E, I70M, T72R
VL: B1 VL
notes: as for B1

Kd: 0.084 nM
B16: A100 (antibody, human IgG1, V domains shown)
VH: B1 VH with A40R, M48I, E52D, I58T, G66V, V68A, V79A, M81L, W105V
VL: B1 VL with P45L, W46L, E91K
notes: as for B1

Kd: 0.05 nM
B22: A113 (antibody, human IgG1, V domains shown)
VH: B1 VH with G66V, V68A, T72R
VL: B1 VL
notes: as for B1

Kd: 0.054 nM
B26: A112 (antibody, human IgG1, V domains shown)
VH: B1 VH with R38K, A40R, I70M, T72R
VL: B1 VL
notes: as for B1

Kd: 0.095 nM
B27: A96 (antibody, human IgG1, V domains shown)
VH: B1 VH with V68A, I70M, T72R
VL: B1 VL
notes: as for B1

Kd: 0.094 nM
B29: A117 (antibody, human IgG1, V domains shown)
VH: B1 VH with E52D, I70M, T72R
VL: B1 VL
notes: as for B1

Kd: 0.056 nM
B31: A110 (antibody, human IgG1, V domains shown)
VH: B1 VH with R38K, I70M, T72R
VL: B1 VL
notes: as for B1

Kd: 0.071 nM
B32: A107 (antibody, human IgG1, V domains shown)
VH: B1 VH with R38K, A40R, M48I, E52D, I58T, G66V, V68A, V79A, M81L, W105V
VL: B1 VL with P45L, W46L
notes: as for B1

Kd: 0.058 nM
B33: A115 (antibody, human IgG1, V domains shown)
VH: B1 VH with G66V, V68A, I70M, T72R
VL: B1 VL
notes: as for B1
